In patent US7713943B2, “Further use of protein kinase N beta” (Silence Therapeutics Aktiengesellschaft (AG), priority 2002, dated 2010):
“Also recorded” adds a separate entry of the source.

Legend:
[1] = tested on: MPB (myelin basic protein); test: In vitro kinase activity of protein kinase N beta derivatives, MPB/MBP phosphorylation; type: biochemical; set-up: key to Activity: +: active; −: inactive; !: no “hyper activation” was observed as one might have expected from comparable mutations in other kinases (Morgan and Debond, 1994); details: for phosphorylation of MBP, 32P incorporation: immune precipitates, gamma 32P-ATP, autoradiography, FIG. 11B
Description: The respective fragments were transiently epressed in HeLa cells. Their relative expression was determined by Western-blot analysis of Hela cell extracts using an anti-PKNbeta antibody.
MPB is myelin basic protein which is a standard in vitro phosphorylation substrate.
As may be taken from FIG. 9A apart from the full-length protein kinase N beta only the kinase domain in its otherwise wildtype form is active in phosphorylating MPB.
The PKNbeta-derived molecules were immune-precipitated from the cell extracts shown in FIG. 10 by using anti-tag antibodies. The immune precipitates were washed as described (Klippel et al., 1996) and divided in two halfs. One half was incubated with 5 μg MBP (UBI) as a phosphorylation substrate, 4 mM MgCl2 and gamma ^32P-ATP in a buffered solution for 10 min at room temperature. In addition, phosphatase inhibitors and inhibitors against unspecifically acting kinases were added as in Klippel et al., 1998. Incorporation of radioactive phosphate was detected by autoradiography after separating the reaction products by 16% SDS-PAGE (FIG. 11B).

GST-GSK3 fusion protein = test: Non-radioactive in vitro kinase assay, anti-phospho GSK3alpha Western blot; type: biochemical; details: immune precipitates, 200 μM rATP, FIG. 11A
Description: The second half of the immune precipitates was incubated with 1 μg GST-GSK3 fusion protein (Cell Signaling Technology) as a phosphorylation substrate in the presence of 200 μM rATP. The reaction mixture was subsequently analyzed by 8-16% gradient SDS-PAGE and Western blotting using the anti-phospho GSK3alpha antibody (Cell Signaling Technology) (FIG. 11A).
The specificity of the in vitro phosphorylation reactions was controlled by analyzing kinase defective variants (e.g. containing mutations in the ATP binding site, see above) in parallel to active protein.
In a first step, the suitability of a non-radioactive screening formate was determined, whereby the various protein kinase N beta derivatives as already discussed in connection with example 10, were used for phosphorylating a suitable substrate. Such substrate may, for example, be MBP or a GSK3 peptide which is typically immobilised on a suitable carrier such as agarose- or sepharose beads or on plastic surfaces. In the present case and as depicted in FIG. 11A, the substrate is a GSK3-derived peptide fused to paramyosin. […] The phosphorylated substrate in the present case was detected by anti-phospho GSK3 alpha antibody (mentioned above).

Activity ([1]; transient overexpression in HeLa cells, MPB substrate, FIG. 9) | phosphorylating MPB (FIG. 9A) ([1]; transient overexpression in HeLa cells) | Molecule | phosphorylation of MBP, 32P incorporation [1] | phosphorylation of GSK3-derived substrate (GST-GSK3 fusion protein; listed as full length wildtype protein kinase N beta) | phosphorylation of GSK3-derived substrate (GST-GSK3 fusion protein)
−* | – | ΔN comprising amino acids 288-889: protein kinase N beta derivative comprising amino acids 288-889 (protein, UniProt Q6P5Z2 288-889, looked up, fragment) CEQLLTAVPGRSPAAALASSPSEGWLRTKAKHQRGRGELASEVLAVLKVDNRVVGQTGWGQVAEQSWDQTFVIPLERARELEIGVHWRDWRQLCGVAFLRLEDFLDNACHQLSLSLVPQGLLFAQVTFCDPVIERRPRLQRQERIFSKRRGQDFLRASQMNLGMAAWGRLVMNLLPPCSSPSTISPPKGCPRTPTTLREASDPATPSNFLPKKTPLGEEMTPPPKPPRLYLPQEPTSEETPRTKRPHMEPRTRRGPSPPASPTRKPPRLQDFRCLAVLGRGHFGKVLLVQFKGTGKYYAIKALKKQEVLSRDEIESLYCEKRILEAVGCTGHPFLLSLLACFQTSSHACFVTEFVPGGDLMMQIHEDVFPEPQARFYVACVVLGLQFLHEKKIIYRDLKLDNLLLDAQGFLKIADFGLCKEGIGFGDRTSTFCGTPEFLAPEVLTQEAYTRAVDWWGLGVLLYEMLVGECPFPGDTEEEVFDCIVNMDAPYPGFLSVQGLEFIQKLLQKCPEKRLGAGEQDAEEIKVQPFFRTTNWQALLARTIQPPFVPTLCGPADLRYFEGEFTGLPPALTPPAPHSLLTARQQAAFRDFDFVSERFLEP | – | – | –
– | active | Full length wt: full length wildtype PKNbeta molecule (889 amino acids) (protein) MEEGAPRQPGPSQWPPEDEKEVIRRAIQKELKIKEGVENLRRVATDRRHLGHVQQLLRSSNRRLEQLHGELRELHARILLPGPGPGPAEPVASGPRPWAEQLRARHLEALRRQLHVELKVKQGAENMTHTCASGTPKERKLLAAAQQMLRDSQLKVALLRMKISSLEASGSPEPGPELLAEELQHRLHVEAAVAEGAKNVVKLLSSRRTQDRKALAEAQAQLQESSQKLDLLRLALEQLLEQLPPAHPLRSRVTRELRAAVPGYPQPSGTPVKPTALTGTLQVRLLGCEQLLTAVPGRSPAAALASSPSEGWLRTKAKHQRGRGELASEVLAVLKVDNRVVGQTGWGQVAEQSWDQTFVIPLERARELEIGVHWRDWRQLCGVAFLRLEDFLDNACHQLSLSLVPQGLLFAQVTFCDPVIERRPRLQRQERIFSKRRGQDFLRRSQMNLGMAAWGRLVMNLLPPCSSPSTISPPKGCPRTPTTLREASDPATPSNFLPKKTPLGEEMTPPPKPPRLYLPQEPTSEETPRTKRPHMEPRTRRGPSPPASPTRKPPRLQDFRCLAVLGRGHFGKVLLVQFKGTGKYYAIKALKKQEVLSRDEIESLYCEKRILEAVGCTGHPFLLSLLVCFQTSSHARFVTEFVPGGDLMMQIHEDVFPEPQARFYVACVVLGLQFLHEKKIIYRDLKLDNLLLDAQGFLKIADFGLCKEGIGFGDRTSTFCGTPEFLAPEVLTQEAYTQAVDWWALGVLLYEMLVGECPFPGDTEEEVFDCIVNMDAPYPGFLSVQGLEFIQKLLQKCPEKRLGAGEQDAEEIKVQPFFRTTNWQALLARTIQPPFVPTLCGPADLRYFEGEFTGLPPALTPPAPHSLLTARQQAAFRDFDFVSERFLEP | show activity | suitable to phosphorylate the substrate; also recorded: show activity | –
– | – | full length TA: full length protein kinase N beta with TA mutation at amino acid 718 (protein) MEEGAPRQPGPSQWPPEDEKEVIRRAIQKELKIKEGVENLRRVATDRRHLGHVQQLLRSSNRRLEQLHGELRELHARILLPGPGPGPAEPVASGPRPWAEQLRARHLEALRRQLHVELKVKQGAENMTHTCASGTPKERKLLAAAQQMLRDSQLKVALLRMKISSLEASGSPEPGPELLAEELQHRLHVEAAVAEGAKNVVKLLSSRRTQDRKALAEAQAQLQESSQKLDLLRLALEQLLEQLPPAHPLRSRVTRELRAAVPGYPQPSGTPVKPTALTGTLQVRLLGCEQLLTAVPGRSPAAALASSPSEGWLRTKAKHQRGRGELASEVLAVLKVDNRVVGQTGWGQVAEQSWDQTFVIPLERARELEIGVHWRDWRQLCGVAFLRLEDFLDNACHQLSLSLVPQGLLFAQVTFCDPVIERRPRLQRQERIFSKRRGQDFLRRSQMNLGMAAWGRLVMNLLPPCSSPSTISPPKGCPRTPTTLREASDPATPSNFLPKKTPLGEEMTPPPKPPRLYLPQEPTSEETPRTKRPHMEPRTRRGPSPPASPTRKPPRLQDFRCLAVLGRGHFGKVLLVQFKGTGKYYAIKALKKQEVLSRDEIESLYCEKRILEAVGCTGHPFLLSLLVCFQTSSHARFVTEFVPGGDLMMQIHEDVFPEPQARFYVACVVLGLQFLHEKKIIYRDLKLDNLLLDAQGFLKIADFGLCKEGIGFGDRTSAFCGTPEFLAPEVLTQEAYTQAVDWWALGVLLYEMLVGECPFPGDTEEEVFDCIVNMDAPYPGFLSVQGLEFIQKLLQKCPEKRLGAGEQDAEEIKVQPFFRTTNWQALLARTIQPPFVPTLCGPADLRYFEGEFTGLPPALTPPAPHSLLTARQQAAFRDFDFVSERFLEP | background activity of unspecific kinases | – | no
– | – | full length KE: full length protein kinase N beta with kinase defective KE mutation at position 588 (protein) MEEGAPRQPGPSQWPPEDEKEVIRRAIQKELKIKEGVENLRRVATDRRHLGHVQQLLRSSNRRLEQLHGELRELHARILLPGPGPGPAEPVASGPRPWAEQLRARHLEALRRQLHVELKVKQGAENMTHTCASGTPKERKLLAAAQQMLRDSQLKVALLRMKISSLEASGSPEPGPELLAEELQHRLHVEAAVAEGAKNVVKLLSSRRTQDRKALAEAQAQLQESSQKLDLLRLALEQLLEQLPPAHPLRSRVTRELRAAVPGYPQPSGTPVKPTALTGTLQVRLLGCEQLLTAVPGRSPAAALASSPSEGWLRTKAKHQRGRGELASEVLAVLKVDNRVVGQTGWGQVAEQSWDQTFVIPLERARELEIGVHWRDWRQLCGVAFLRLEDFLDNACHQLSLSLVPQGLLFAQVTFCDPVIERRPRLQRQERIFSKRRGQDFLRRSQMNLGMAAWGRLVMNLLPPCSSPSTISPPKGCPRTPTTLREASDPATPSNFLPKKTPLGEEMTPPPKPPRLYLPQEPTSEETPRTKRPHMEPRTRRGPSPPASPTRKPPRLQDFRCLAVLGRGHFGKVLLVQFKGTGKYYAIEALKKQEVLSRDEIESLYCEKRILEAVGCTGHPFLLSLLVCFQTSSHARFVTEFVPGGDLMMQIHEDVFPEPQARFYVACVVLGLQFLHEKKIIYRDLKLDNLLLDAQGFLKIADFGLCKEGIGFGDRTSTFCGTPEFLAPEVLTQEAYTQAVDWWALGVLLYEMLVGECPFPGDTEEEVFDCIVNMDAPYPGFLSVQGLEFIQKLLQKCPEKRLGAGEQDAEEIKVQPFFRTTNWQALLARTIQPPFVPTLCGPADLRYFEGEFTGLPPALTPPAPHSLLTARQQAAFRDFDFVSERFLEP | background activity of unspecific kinases | – | no
